Tested on: serum uric acid (sUA)
Assay: Serum uric acid (sUA) levels and sUA responders, open-label study of pegloticase with MTX (NCT03635957)
Type: in vivo, human
Protocol: The primary objective is to estimate the response rate during Month 6 (Weeks 20, 22, and 24), as measured by the sustained normalization of serum uric acid (SUA) to <6 mg/dL for at least 80% of the time during Month 6 in subjects receiving KXX with MTX.
The primary efficacy outcome endpoint is the sustained normalization of SUA to <6 mg/dL for at least 80% of the time during month 6 (weeks 20, 22, and 24) in subjects receiving KXX with MTX. This is slightly below the urate solubility threshold and this threshold has been the accepted standard for nearly all modern gout trials. Participants who achieve this endpoint were classified as “responders.” Serum uric acid (SUA) responders may also be defined as participants achieving and maintaining SUA <6 mg/dL for at least 80% of the time during Month 6 (Weeks 20, 22, and 24).
Blood samples may be collected prior to each pegloticase infusion for measurement of SUA levels using the Beckman Coulter AU System Uric Acid procedure. Participants were declared “non-responders” if there were SUA measures >6 mg/dL at 2 consecutive study visits beginning with the week 2 visit. […] If the SUA goal is not maintained before or at the 12-week mark, it was assumed that the participant had developed clinically relevant anti-pegloticase antibody and they received no further infusions. This assumption and subsequent discontinuation of pegloticase was consistent with the protocol of large phase III randomized controlled trials and the product label. A formal stopping rule was 2 occasions of SUA levels of greater than 6 mg/dL.
Clinical Chemistry—Blood samples were collected prior to each pegloticase infusion for measurement of SUA levels (primary efficacy parameter) using the Beckman Coulter AU System Uric Acid procedure. In this procedure uric acid is converted to hydrogen peroxide. Hydrogen peroxide reacts with reagent to produce a chromophore which is read bichromatically at 660/800 nm. The amount of dye formed is proportional to the uric acid concentration in the sample.
Serum samples for measurement of SUA levels were collected at the Screening Visit, the Week −4 Visit (prior to the first dose of MTX), and the Week −2 Visit during the MTX Run-in Period; within 48 hours prior to each pegloticase infusion and after the end of each pegloticase infusion prior to discharge from the site during the Pegloticase+IMM Period; at the non-infusion Week 52/End of Study/Early Termination Visits and at the Post Treatment 3 and 6 Month Follow-up Visits. Additional serum samples for SUA levels were collected at optional non-infusion (Frequent Sampling) Visits at Weeks 1 and 7. […] Subjects with SUA level >6 mg/dL at 2 consecutive visits beginning at Week 2 visit discontinued treatment, completed the End of Pegloticase Infusion Visit procedures within 2 weeks and continued the subject visits according to the protocol (without treatment).
Efficacy analyses were performed using the modified intention-to-treat (mITT) population, defined as all enrolled subjects who received ≥1 dose of pegloticase. The proportion of Month 6 responders was summarized, along with a 95% confidence interval for the proportion. The proportion of Month 3 and overall (Months 3 and 6 combined) responders was analyzed similarly.
A subject was declared a non-responder if the subject had SUA level >6 mg/dL at 2 consecutive study visits beginning with the Week 2 Visit. In addition, a subject who withdraws from study treatment for any reason after the first dose of pegloticase in the KXX+MTX Period and prior to Month 6 (for the primary endpoint) or Month 3 (for the secondary endpoint) was considered a non-responder if SUA values were not collected at the planned time points.
Patients were administered oral MTX (15 mg/week) and folate (1 mg/day) 4 weeks prior to the first pegloticase infusion (Day 1) and throughout the pegloticase treatment period. […]

[1] = Week 34 - Pre-Infusion, Month 6 sUA Responders
[2] = Week 34 - Pre-Infusion, mITT, n=10
[3] = Week 36 - Post-Infusion, Month 6 sUA Responders
[4] = Week 36 - Post-Infusion, mITT, n=6
[5] = Week 36 - Pre-Infusion, Month 6 sUA Responders
[6] = Week 36 - Pre-Infusion, mITT, n=9
[7] = Week 38 - Pre-Infusion, Month 6 sUA Responders
[8] = Week 38 - Pre-Infusion, mITT, n=5
[9] = Week 40 - Pre-Infusion, Month 6 sUA Responders
[10] = Week 40 - Pre-Infusion, mITT, n=3
[11] = Week 42 - Pre-Infusion, Month 6 sUA Responders
[12] = Week 42 - Pre-Infusion, mITT, n=3
[13] = Week 44 - Pre-Infusion, Month 6 sUA Responders
[14] = Week 44 - Pre-Infusion, mITT, n=3
[15] = Week 46 - Pre-Infusion, Month 6 sUA Responders
[16] = Week 46 - Pre-Infusion, mITT, n=2
[17] = Week 48 - Post-Infusion, Month 6 sUA Responders
[18] = Week 48 - Post-Infusion, mITT, n=3
[19] = Week 48 - Pre-Infusion, Month 6 sUA Responders
[20] = Week 48 - Pre-Infusion, mITT, n=2
[21] = Week 50 - Post-Infusion, Month 6 sUA Responders
[22] = Week 50 - Post-Infusion, mITT, n=3
[23] = Week 50 - Pre-Infusion, Month 6 sUA Responders
[24] = Week 50 - Pre-Infusion, mITT, n=2
[25] = Week 52/ET, Month 6 sUA Responders

B1: pegloticase (protein)
chain: TYKKNDEVEFVRTGYGKDMIKVLHIQRDGKYHSIKEVATTVQLTLSSKKDYLHGDNSDVIPTDTIKNTVNVLAKFKGIKSIETFAVTICEHFLSSFKHVIRAQVYVEEVPWKRFEKNGVKHVHAFIYTPTGTHFCEVEQIRNGPPVIHSGIKDLKVLKTTQSGFEGFIKDQFTTLPEVKDRCFATQVYCKWRYHQGRDVDFEATWDTVRSIVLQKFAGPYDKGEYSPSVQKTLYDIQVLTLGQVPEIEDMEISLPNIHYLNIDMSKMGLINKEEVLLPLDNPYGKITGTVKRKLSSRL
modifications: monomethoxy PEG conjugated; Krystexxa Sequence
notes: covalent conjugate of uricase produced by a genetically modified strain of Escherichia coli and monomethoxypoly (ethylene glycol)
sUA < 6 mg/dL, % [1]: (100%)
sUA Change from Baseline, Mean [1]: -8.47 mg/dL
sUA Change from Baseline, Median [1]: -7.95 mg/dL
sUA Observed, Mean [1]: 0.82 mg/dL
sUA Observed, Median [1]: 0.30 mg/dL
sUA < 6 mg/dL, n (%) [2]: 10 (100%)
sUA Change from Baseline, Mean (SD) [2]: −8.47 (3.248) mg/dL
sUA Change from Baseline, Median [2]: -7.95 mg/dL
sUA Observed, Mean (SD) [2]: 0.82 (1.046) mg/dL
sUA Observed, Median [2]: 0.30 mg/dL
sUA < 6 mg/dL, % [3]: (100%)
sUA Change from Baseline, Mean [3]: -9.38 mg/dL
sUA Change from Baseline, Median [3]: -9.20 mg/dL
sUA Observed, Mean [3]: 0.30 mg/dL
sUA Observed, Median [3]: 0.30 mg/dL
sUA < 6 mg/dL, n (%) [4]: 6 (100%)
sUA Change from Baseline, Mean (SD) [4]: −9.38 (3.799) mg/dL
sUA Change from Baseline, Median [4]: -9.20 mg/dL
sUA Observed, Mean (SD) [4]: 0.30 (0.000) mg/dL
sUA Observed, Median [4]: 0.30 mg/dL
sUA < 6 mg/dL, % [5]: ( 88.9%)
sUA Change from Baseline, Mean [5]: -7.90 mg/dL
sUA Change from Baseline, Median [5]: -8.60 mg/dL
sUA Observed, Mean [5]: 1.58 mg/dL
sUA Observed, Median [5]: 0.30 mg/dL
sUA < 6 mg/dL, n (%) [6]: 8 (88.9%)
sUA Change from Baseline, Mean (SD) [6]: −7.90 (4.094) mg/dL
sUA Change from Baseline, Median [6]: -8.60 mg/dL
sUA Observed, Mean (SD) [6]: 1.58 (2.425) mg/dL
sUA Observed, Median [6]: 0.30 mg/dL
sUA < 6 mg/dL, % [7]: (100%)
sUA Change from Baseline, Mean [7]: -8.41 mg/dL
sUA Change from Baseline, Median [7]: -8.60 mg/dL
sUA Observed, Mean [7]: 0.93 mg/dL
sUA Observed, Median [7]: 0.30 mg/dL
sUA < 6 mg/dL, n (%) [8]: 5 (100%)
sUA Change from Baseline, Mean (SD) [8]: −8.41 (5.229) mg/dL
sUA Change from Baseline, Median [8]: -8.60 mg/dL
sUA Observed, Mean (SD) [8]: 0.93 (1.583) mg/dL
sUA Observed, Median [8]: 0.30 mg/dL
sUA < 6 mg/dL, % [9]: (100%)
sUA Change from Baseline, Mean [9]: -11.30 mg/dL
sUA Change from Baseline, Median [9]: -9.80 mg/dL
sUA Observed, Mean [9]: 0.30 mg/dL
sUA Observed, Median [9]: 0.30 mg/dL
sUA < 6 mg/dL, n (%) [10]: 3 (100%)
sUA Change from Baseline, Mean (SD) [10]: −11.30 (3.686) mg/dL
sUA Change from Baseline, Median [10]: -9.80 mg/dL
sUA Observed, Mean (SD) [10]: 0.30 (0.000) mg/dL
sUA Observed, Median [10]: 0.30 mg/dL
sUA < 6 mg/dL, % [11]: (100%)
sUA Change from Baseline, Mean [11]: -11.30 mg/dL
sUA Change from Baseline, Median [11]: -9.80 mg/dL
sUA Observed, Mean [11]: 0.30 mg/dL
sUA Observed, Median [11]: 0.30 mg/dL
sUA < 6 mg/dL, n (%) [12]: 3 (100%)
sUA Change from Baseline, Mean (SD) [12]: −11.30 (3.686) mg/dL
sUA Change from Baseline, Median [12]: -9.80 mg/dL
sUA Observed, Mean (SD) [12]: 0.30 (0.000) mg/dL
sUA Observed, Median [12]: 0.30 mg/dL
sUA < 6 mg/dL, % [13]: (100%)
sUA Change from Baseline, Mean [13]: -10.55 mg/dL
sUA Change from Baseline, Median [13]: -9.80 mg/dL
sUA Observed, Mean [13]: 1.05 mg/dL
sUA Observed, Median [13]: 0.30 mg/dL
sUA < 6 mg/dL, n (%) [14]: 3 (100%)
sUA Change from Baseline, Mean (SD) [14]: −10.55 (4.625) mg/dL
sUA Change from Baseline, Median [14]: -9.80 mg/dL
sUA Observed, Mean (SD) [14]: 1.05 (1.305) mg/dL
sUA Observed, Median [14]: 0.30 mg/dL
sUA < 6 mg/dL, % [15]: (100%)
sUA Change from Baseline, Mean [15]: -12.65 mg/dL
sUA Change from Baseline, Median [15]: -12.65 mg/dL
sUA Observed, Mean [15]: 0.30 mg/dL
sUA Observed, Median [15]: 0.30 mg/dL
sUA < 6 mg/dL, n (%) [16]: 2 (100%)
sUA Change from Baseline, Mean (SD) [16]: −12.65 (4.031) mg/dL
sUA Change from Baseline, Median [16]: -12.65 mg/dL
sUA Observed, Mean (SD) [16]: 0.30 (0.000) mg/dL
sUA Observed, Median [16]: 0.30 mg/dL
sUA < 6 mg/dL, % [17]: (100%)
sUA Change from Baseline, Mean [17]: -10.33 mg/dL
sUA Change from Baseline, Median [17]: -9.80 mg/dL
sUA Observed, Mean [17]: 1.60 mg/dL
sUA Observed, Median [17]: 0.30 mg/dL
sUA < 6 mg/dL, n (%) [18]: 3 (100%)
sUA Change from Baseline, Mean (SD) [18]: −10.33 (4.922) mg/dL
sUA Change from Baseline, Median [18]: -9.80 mg/dL
sUA Observed, Mean (SD) [18]: 1.60 (2.252) mg/dL
sUA Observed, Median [18]: 0.30 mg/dL
sUA < 6 mg/dL, % [19]: (100%)
sUA Change from Baseline, Mean [19]: -12.65 mg/dL
sUA Change from Baseline, Median [19]: -12.65 mg/dL
sUA Observed, Mean [19]: 0.30 mg/dL
sUA Observed, Median [19]: 0.30 mg/dL
sUA < 6 mg/dL, n (%) [20]: 2 (100%)
sUA Change from Baseline, Mean (SD) [20]: −12.65 (4.031) mg/dL
sUA Change from Baseline, Median [20]: -12.65 mg/dL
sUA Observed, Mean (SD) [20]: 0.30 (0.000) mg/dL
sUA Observed, Median [20]: 0.30 mg/dL
sUA < 6 mg/dL, % [21]: (100%)
sUA Change from Baseline, Mean [21]: -10.57 mg/dL
sUA Change from Baseline, Median [21]: -9.80 mg/dL
sUA Observed, Mean [21]: 1.37 mg/dL
sUA Observed, Median [21]: 0.30 mg/dL
sUA < 6 mg/dL, n (%) [22]: 3 (100%)
sUA Change from Baseline, Mean (SD) [22]: −10.57 (4.598) mg/dL
sUA Change from Baseline, Median [22]: -9.80 mg/dL
sUA Observed, Mean (SD) [22]: 1.37 (1.848) mg/dL
sUA Observed, Median [22]: 0.30 mg/dL
sUA < 6 mg/dL, % [23]: (100%)
sUA Change from Baseline, Mean [23]: -12.65 mg/dL
sUA Change from Baseline, Median [23]: -12.65 mg/dL
sUA Observed, Mean [23]: 0.30 mg/dL
sUA Observed, Median [23]: 0.30 mg/dL
sUA < 6 mg/dL, n (%) [24]: 2 (100%)
sUA Change from Baseline, Mean (SD) [24]: −12.65 (4.031) mg/dL
sUA Change from Baseline, Median [24]: -12.65 mg/dL
sUA Observed, Mean (SD) [24]: 0.30 (0.000) mg/dL
sUA Observed, Median [24]: 0.30 mg/dL
sUA < 6 mg/dL, % [25]: (100%)
sUA Change from Baseline, Mean [25]: -12.65 mg/dL
sUA Change from Baseline, Median [25]: -12.65 mg/dL
sUA Observed, Mean [25]: 0.30 mg/dL
sUA Observed, Median [25]: 0.30 mg/dL
sUA < 6 mg/dL, n (%) (Week 52/ET, mITT, n=2): 2 (100%)
sUA Change from Baseline, Mean (SD) (Week 52/ET, mITT, n=2): −12.65 (4.031) mg/dL
sUA Change from Baseline, Median (Week 52/ET, mITT, n=2): -12.65 mg/dL
sUA Observed, Mean (SD) (Week 52/ET, mITT, n=2): 0.30 (0.000) mg/dL
sUA Observed, Median (Week 52/ET, mITT, n=2): 0.30 mg/dL
